# ± gives the uncertainty stated by the source.
# B1: Protein C-ets-1, residues 55 to 135; numbered along this chain, P14921 (parent)
# chain: GFTKEQQRLGIPKDPRQWTETHVRDWVMWAVNEFSLKGVDFQKFCMNGAALCALGKDCFLELAPDFVGDILWEHLEILQKE
# Variants of: B1
# Assay: abundance fitness (aPCA) (normalised: wild type 0, dead -1); higher = more abundant; growth selection in yeast, the domain comes from the species named
# Details: Homo sapiens
row,Variant,abundance fitness
1,GFTKEQQRLGIPKDPRQWTETHVRDWVMWAVNEFSLKGVDFQKFCMNGAALCALFKDCFLELAPDFVGDILWEHLEILQKE [G55F],-0.992 ± 0.15
2,GFTKEQQRLGIPKDPRQWTETHVRDWVMWAVNEFSLKGVDFQKFCMNGAALCALCKDCFLELAPDFVGDILWEHLEILQKE [G55C],0.019 ± 0.057
3,GFTKEQQRLGIPKDPRQWTETHVRDWVMWAVNEFSLKGVDFQKFCMNGAALCALHKDCFLELAPDFVGDILWEHLEILQKE [G55H],-0.055 ± 0.066
4,GFTKEQQRLGIPKDPRQWTETHVRDWVMWAVNEFSLKGVDFQKFCMNGAALCALKKDCFLELAPDFVGDILWEHLEILQKE [G55K],0.029 ± 0.059
5,GFTKEQQRLGIPKDPRQWTETHVRDWVMWAVNEFSLKGVDFQKFCMNGAALCALLKDCFLELAPDFVGDILWEHLEILQKE [G55L],-0.791 ± 0.054
6,GFTKEQQRLGIPKDPRQWTETHVRDWVMWAVNEFSLKGVDFQKFCMNGAALCALDKDCFLELAPDFVGDILWEHLEILQKE [G55D],0.061 ± 0.053
7,GFTKEQQRLGIPKDPRQWTETHVRDWVMWAVNEFSLKGVDFQKFCMNGAALCALNKDCFLELAPDFVGDILWEHLEILQKE [G55N],0.03 ± 0.085
8,GFTKEQQRLGIPKDPRQWTETHVRDWVMWAVNEFSLKGVDFQKFCMNGAALCALEKDCFLELAPDFVGDILWEHLEILQKE [G55E],0.031 ± 0.046
9,GFTKEQQRLGIPKDPRQWTETHVRDWVMWAVNEFSLKGVDFQKFCMNGAALCALAKDCFLELAPDFVGDILWEHLEILQKE [G55A],0.002 ± 0.035
10,GFTKEQQRLGIPKDPRQWTETHVRDWVMWAVNEFSLKGVDFQKFCMNGAALCALMKDCFLELAPDFVGDILWEHLEILQKE [G55M],-0.433 ± 0.051
11,GFTKEQQRLGIPKDPRQWTETHVRDWVMWAVNEFSLKGVDFQKFCMNGAALHALGKDCFLELAPDFVGDILWEHLEILQKE [C52H],-0.534 ± 0.079
12,GFTKEQQRLGIPKDPRQWTETHVRDWVMWAVNEFSLKGVDFQKFCMNGAALNALGKDCFLELAPDFVGDILWEHLEILQKE [C52N],-0.497 ± 0.075
13,GFTKEQQRLGIPKDPRQWTETHVRDWVMWAVNEFSLKGVDFQKFCMNGAALPALGKDCFLELAPDFVGDILWEHLEILQKE [C52P],-0.896 ± 0.073
14,GFTKEQQRLGIPKDPRQWTETHVRDWVMWAVNEFSLKGVDFQKFCMNGAALFALGKDCFLELAPDFVGDILWEHLEILQKE [C52F],-0.325 ± 0.056
15,GFTKEQQRLGIPKDPRQWTETHVRDWVMWAVNEFSLKGVDFQKFCMNGAALKALGKDCFLELAPDFVGDILWEHLEILQKE [C52K],-0.627 ± 0.052
16,GFTKEQQRLGIPKDPRQWTETHVRDWVMWAVNEFSLKGVDFQKFCMNGAALRALGKDCFLELAPDFVGDILWEHLEILQKE [C52R],-0.564 ± 0.034
17,GFTKEQQRLGIPKDPRQWTETHVRDWVMWAVNEFSLKGVDFQKFCMNGAALSALGKDCFLELAPDFVGDILWEHLEILQKE [C52S],-0.185 ± 0.033

row,Variant,abundance fitness
1,GFTKEQQRLGIPKDPRQWTETHVRDWVMWAVNEFSLKGVDFQKFCMNGAALMALGKDCFLELAPDFVGDILWEHLEILQKE [C52M],-0.079 ± 0.04
2,GFTKEQQRLGIPKDPRQWTETHVRDWVMWAVNEFSLKGVDFQKFCMNGAALIALGKDCFLELAPDFVGDILWEHLEILQKE [C52I],-0.029 ± 0.052
3,GFTKEQQRLGIPKDPRQWTETHVRDWVMWAVNEFSLKGVDFQKFCMNGAALWALGKDCFLELAPDFVGDILWEHLEILQKE [C52W],-0.641 ± 0.046
4,GFTKEQQRLGIPKDPRQWTETHVRDWVMWAVNEFSLKGVDFQKFCMNGAALVALGKDCFLELAPDFVGDILWEHLEILQKE [C52V],-0.066 ± 0.027
5,GFTKEQQRLGIPKDPRQWTETHVRDWVMWAVNEFSLKGVDFQKFCMNGAALYALGKDCFLELAPDFVGDILWEHLEILQKE [C52Y],-0.472 ± 0.065
6,GFTKEQQRLGIPKDPRQWTETHVRDWVMWAVNEFSLKGVDFQKFCMNGAALAALGKDCFLELAPDFVGDILWEHLEILQKE [C52A],-0.303 ± 0.029
7,GFTKEQQRLGIPKDPRQWTETHVRDWVMWAVNEFSLKGVDFQKFCMNGAALGALGKDCFLELAPDFVGDILWEHLEILQKE [C52G],-0.562 ± 0.024
8,GFTKEQQRLGIPKDPRQWTETHVRDWVMWAVNEFSLKGVDFQKFCMNGAALEALGKDCFLELAPDFVGDILWEHLEILQKE [C52E],-0.542 ± 0.038
9,GFTKEQQRLGIPKDPRQWTETHVRDWVMWAVNEFSLKGVDFQKFCMNGAALQALGKDCFLELAPDFVGDILWEHLEILQKE [C52Q],-0.494 ± 0.062
10,GFTKEQQRLGIPKDPRQWTETHVRDWVMWAVNEFSLKGVDFQKFCMNGAALCILGKDCFLELAPDFVGDILWEHLEILQKE [A53I],-0.452 ± 0.075
11,GFTKEQQRLGIPKDPRQWTETHVRDWVMWAVNEFSLKGVDFQKFCMNGAALCLLGKDCFLELAPDFVGDILWEHLEILQKE [A53L],-0.227 ± 0.032
12,GFTKEQQRLGIPKDPRQWTETHVRDWVMWAVNEFSLKGVDFQKFCMNGAALCNLGKDCFLELAPDFVGDILWEHLEILQKE [A53N],0.01 ± 0.052
13,GFTKEQQRLGIPKDPRQWTETHVRDWVMWAVNEFSLKGVDFQKFCMNGAALCDLGKDCFLELAPDFVGDILWEHLEILQKE [A53D],0.067 ± 0.048
14,GFTKEQQRLGIPKDPRQWTETHVRDWVMWAVNEFSLKGVDFQKFCMNGAALCRLGKDCFLELAPDFVGDILWEHLEILQKE [A53R],-0.046 ± 0.024
15,GFTKEQQRLGIPKDPRQWTETHVRDWVMWAVNEFSLKGVDFQKFCMNGAALCYLGKDCFLELAPDFVGDILWEHLEILQKE [A53Y],-0.583 ± 0.081
16,GFTKEQQRLGIPKDPRQWTETHVRDWVMWAVNEFSLKGVDFQKFCMNGAALCHLGKDCFLELAPDFVGDILWEHLEILQKE [A53H],-0.188 ± 0.075
17,GFTKEQQRLGIPKDPRQWTETHVRDWVMWAVNEFSLKGVDFQKFCMNGAALCTLGKDCFLELAPDFVGDILWEHLEILQKE [A53T],-0.039 ± 0.037

# Reference: the Human Domainome abundance scans (Beltran et al. 2025)
